US20120171209A1 (Ablynx, published 2012)

T1: human soluble IL-6R, recombinant (human, UniProt P08887 20-358)
T1 construct: also called human IL6-R; bio-IL-6R
T1 sequence (looked up): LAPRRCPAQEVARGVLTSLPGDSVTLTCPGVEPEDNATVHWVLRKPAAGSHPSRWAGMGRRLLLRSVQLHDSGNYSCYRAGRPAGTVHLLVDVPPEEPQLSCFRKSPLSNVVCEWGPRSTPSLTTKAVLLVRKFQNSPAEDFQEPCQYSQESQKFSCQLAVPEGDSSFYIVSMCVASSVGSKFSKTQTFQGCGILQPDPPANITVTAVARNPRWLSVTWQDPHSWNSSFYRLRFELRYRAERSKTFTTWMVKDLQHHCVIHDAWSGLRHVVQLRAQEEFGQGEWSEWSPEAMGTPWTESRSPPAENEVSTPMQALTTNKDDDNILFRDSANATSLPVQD

B1: IL6RPMP103B2 (VHH)
VHH: EVQLVESGGGLVQPGGSLRLSCAASGSTFSINMMAWYCQAPGKQRELVASISSGGGINYADSVKGRFTISRDYAENSVDLQMNSLKPEDTAVYYCNARGTYLNGDHYSTNYNSWGQGTQVTVSS
B2: IL6RPMP103F2 (VHH)
VHH: EVQLVESGGGLVQAGGSLRLSCVASGHTSDTYIMAWFRQAPGKEREFVASILWDGSITYYADSVKDRFTISRDISRKTLYLQMNSLRPEDTATYTCARGIYFSRRYVDPGIYGTWGQGTQVTVSS
notes: family 26; periplasmic extract
B3: IL6RPMP106B2 (VHH)
VHH: EVQLVESGGGLVQAGGSLRLSCAASGSIFRINAMGWYRQAPGKQRELVAAAISGGSTNYADFVKGRFTISRDNAKNTVYLQMNSLKPEDTAVYYCNALVVSHNYSDYVPFPDDYWGQGTQVTVSS
notes: family 6; periplasmic extract
B4: IL6RPMP105D3 (VHH)
VHH: EVQLEESGGGLVQAGGSLRLSCAASGSIFRINAMGWYRQAPGKQRELVAAAISGGSTNYADFVKGRFTISRDNAKNTVYLQMNSLKPEDTAVYYCNALVVSHNYSDYVPFPDDYWGQGTQVTVSS
notes: family 6; periplasmic extract
B5: IL6RPMP106F7 (VHH)
VHH: EVQLVESEGGLVQAGGSLRLSCAASGSIFRINAMGWYRQAPGKQRELVAAAISGGSTNYADFVKGRFTISRDNAKNTVYLQMNSLKPEDTAVYYCNALVVSHNYSDYVPFPDDYWGQGTQVTVSS
notes: family 6; periplasmic extract
B6: IL6RPMP105C2 (VHH)
VHH: EVQLVESGGGLVQAGGSLRLSCAASGSIFRINAMGWYRQAPGEQRELVAAAISGGSTNYADFVKGRFTISRDNAKNTVYLQMNSLKPEDTAVYYCNALVVSHNYSDYVPFPDDYWGQGTQVTVSS
notes: family 6; periplasmic extract
B7: IL6RPMP103A5 (VHH)
VHH: EVQLVESGGGLVQAGDSLRLSCVASGLPFSTLHMGWFRQAPGKEHESVSAISSDGGSEYYAGSVKGRFTISRDNAKNTVYLQMNSLKPEDTAVYYCAADPRRIGANIKYSDYWGQGTQVTVSS
B8: IL6RPMP107B4 (VHH)
VHH: EVQLVESGGGLVQAGGSLRLSCVASGLRLNMHRMGWFRQAPGKEREFVARIFTDDGDSYYADSVQGRFTISGDNAKNTVYLQMNSLKPEDTGVYFCAAGYMSGAESPIGYDNWGQGTQVTVSS
notes: family 17; periplasmic extract; also called PMP107B04
B9: IL6RPMP101B6 (VHH)
VHH: EVQLVESGGGLVQAGGSLRLSCAASGSDFSIKAMGWYRQAPGKQRELVARITSGGSTVYADSVKGRFTISRDNAKNTVYLQMNSLKPEDATVYYCNAIVTYSDYDLGNDYWGQGTQVTVSS
notes: family 7; periplasmic extract
B10: IL6RPMP107E4 (VHH)
VHH: EVQLVESGGGLVQAGGSLRLSCAASGSIDRINAMGWYRQAPGKQRDFLAVITDGDKTLYADSVKGRFTISNDNAKNTVYLQMNSLKPEDTAVYYCNAYQAGWGDYWGQGTQVTVSS
notes: periplasmic extract
B11: IL6RPMP104B8 (VHH)
VHH: EVQLVESGGGLVQAGGSLRLSCAASGFAFDDYAIGWFRQAPGKEREGVSSISSSNGNTYYADSVRGRFTISSDNAKNTVYLQMNSLKPEDTGVYYCAAIWGIFFNEKMPVGAYDYWGQGTQVTVSS
notes: family 3; also called PMP104B08; IL6R104B8
B12: IL6RPMP105B8 (VHH)
VHH: EVQLVESGGGLVRAGGSLRLSCAASGFAFDDYAIGWFRQAPGKEREGVSSISSSNGNTYYADSVRGRFTISSDNAKNTVYLQMNSLKPEDTGVYYCAAIWGIFFNEKMPVGAYDYWGQGTQVTVSS
notes: family 3; periplasmic extract
B13: IL6RPMP105H10 (VHH)
VHH: EVQMVESGGGLVQAGGSLRLSCAASGFAFDDYAIGWFRQAPGKEREGVSSISSSNGNTYYADSVRGRFTISSDNAKNTVYLQMNSLKPEDAGVYYCAAIWGIFFNEKMPVGAYDYWGQGTQVTVSS
notes: family 3; periplasmic extract
B14: IL6RPMP108C9 (VHH)
VHH: EVQLVESGGGLVQAGGSLRLSCAASGRTYAMAWFRQAPGKEREFVAAISIVTDYADSVKGRFNISRDNRENTVYLQMNSLKPEDTAVYYCAANTYYSGAYFPRGHEWYEYWGQGTQVTVSS
notes: family 16; periplasmic extract
B15: IL6RPMP101A5 (VHH)
VHH: EVQLVESGGGLVQAGGSLRLSCTASGRTFSDYDMGWFRQAPGKERECVAIIDTNGDNTLIVGSVKGRFAISSDNAKNTVYLQMNSLLPEDTAVYTCAAGVWSSLRHTAANYWGQGTQVTVSS
notes: family 5; periplasmic extract
B16: IL6RPMP108C10 (VHH)
VHH: EVQLVESGGGLVQPGGSLRLSCTASGRTFSDYDMGWFRQAPGKERECVAVIDTNGDNTLTVGSVKGRFAISRDNAKNTVYLQMNSLLPEDTAVYTCAAGAWSSLRSTAANYWGQGTQVTVSS
B17: IL6RPMP108D1 (VHH)
VHH: EVQLVESGGGLVQAGGSLRLSCTASGRTFSDYDMGWFRQAPGKERECVAVIDTNGDNTLTVGSVKGRFAISRDNAKNTVYLQMNSLLPEDTAVYTCAAGAWSSLRSTAANYWGQGTKVTVSS
B18: IL6RPMP108D10 (VHH)
VHH: EVQLVESGGGSVQAGGSLRLSCTASGRTFSDYDMGWFRQAPGKERECVAVIDTNGDNTLTVGSVKGRFAISRDNAKNTVYLQMNSLLPEDTAVYTCAAGAWSSLRSTAANYWGQGTQVTVSS
B19: IL6RPMP108F7 (VHH)
VHH: EVQLVESGGGLVQAGGSLRLSCTASGRTFSDYDMGWFRQAPGKERECVAVIDTNGDNTLTVGSVKGRFAISRDNAKNTVYLQMNSLLPEDTAVYTCAAGAWSSLRSTAANYWGQGTQVTVSS
B20: IL6RPMP104B9 (VHH)
VHH: EVQLVESGGGLVQAGGSLRLSCTASGRTFSDYDMGWFRQAPGKERECVAIIDTNGDNTLIVGSVKGRFAISSDNAKNTVYLQMNSLLPEDTAVYTCAAGVWSSLRHTAANYWGQGTQVTVSS
notes: family 5; periplasmic extract
B21: IL6RPMP120G6 (VHH)
VHH: EVQLVESGGDLVQTGGSLRLSCAASGITVSDRAMGWYRQAPGKQREMVAGVSRGGMTSYADSVKGRLTISRDNAKNSVYLQMNSLNPEDTAVYYCSAYYRYGSSVPQYWGQGTQVTVSS
B22: IL6RPMP100D11 (VHH)
VHH: EVQLVESGGGLVQAGDSLRLSCLASGRSFKDDAMGWFRQAPGKEREFVSGIDWRGNIVDAESVKGRFTISRENAKNTLYLQMNHLKPEDTAVYYCAASSVFSDLRYRKNPKYWGQGTQVTVSS
B23: IL6RPMP106D6 (VHH)
VHH: EVQLVESGGGLVQAGGSLRLSCAASGFTFDDYAIGWFRQAPGKEREGVSCMISSDGSTYYADSVKGRFTISSDNAKNTVYLQMDSLKPEDTAVYYCAADLSLYGCYVGDRDLYDYDYWGQGTQVTVSS
notes: family 22; periplasmic extract; also called PMP106D06
B24: IL6RPMP104E7 (VHH)
VHH: EVQLVESGGGLVQAGGSLRLSCAAGGSIFSINAMGWYRQAPGKQRELVASITSGGSTTYADSVKGRFTISRDNAKDTVYLQMNSLKPEDTAVYYCNAHIRFPFPNDYWGQGTQVTVSS
notes: family 18; periplasmic extract; also called PMP104E07
B25: IL6RPMP100G11 (VHH)
VHH: EVQLVESGGGLVQAGGSLRLSCAASGRGFSPYTMGWFRQAPGKERVFVAGISWSTGIAHYTDSVKGRFTISRDNAKNTGSLQMNSLKPEDTAVYYCAVVQTTKGNYDYWGQGTQVTVSS
notes: family 4; also called IL6R100G11
B26: IL6RPMP103A2 (VHH)
VHH: EVQLVESGGGLVQPGGSLRLSCAASGSIFSINTMGWYRQVPGKQRELVATVRSGSITNYADSVQDQFTITRDIDENTVYLQMNSLKPEDTAVYYCLTRASVPGRGYQDYWGQGTQVTVSS
B27: IL6RPMP103A4 (VHH)
VHH: EVQLVESGGGLVQPGGSLRLSCAASGSIFSINTMGWYRQVPGKQRELVATVRSGSITNYADSVQDRFTITRDIDENTVYLQMNSLKPEDTAVYYCLTRASVPGRGYQDYWGQGTQVTVSS
B28: IL6RPMP108E9 (VHH)
VHH: EVQLVESGGGLVQAGGSLRLSCAFSRRSFGNFPMGWFRQRPGEEREYVAVISWNNNYIHYRDSVKGRFTASRDTSENRMYLQMNGLKPEDTAVYYCAARTKDNTLFTPAEEYDYWGQGTQVTVSS
notes: family 15; periplasmic extract
B29: IL6RPMP103C3 (VHH)
VHH: EVQLVESGGGLVQPGGSMRLSCAATGAIFSISTMGWYRQAPGAQREFVAGVGLDGTPNYADSVKGRFTISRDNTKNTVSLQMENLKPEDTGVYYCNIDEGMDYDGNFYDRWGQGTQVTVSS
notes: family 14; periplasmic extract
B30: IL6RPMP101G11 (VHH)
VHH: EVQLVESGGGLVQPGGSLRLSCAASASGFTLDYYAIGWFRQAPGKEREGVSCISSTDGSTYYADSVKGRFTISRDNAKNTVYLQMNSLNPEDTGVYTCAAVLTTAQAMGVPTRSYEYDYWGQGTQVTVSS
notes: family 2; periplasmic extract

Key:
[1] = biological target: cynomolgus IL-6R used in Biacore (cynomolgus monkey); assay: Biacore, periplasmic extract
[2] = biological target: T1, human soluble IL-6R, recombinant; assay: Biacore, periplasmic extract
Procedure: Periplasmic extracts of representative family clones were also analyzed on Biacore. Dissociation curves were used to calculate koff rates. koff rates are depicted in Table C-6.

[3] = biological target: IL-6R on the surface of TF-1 cells (UniProt P08887); assay: cell-based or functional assay
Chain of IL-6R on the surface of TF-1 cells (P08887 20-468 limits assumed): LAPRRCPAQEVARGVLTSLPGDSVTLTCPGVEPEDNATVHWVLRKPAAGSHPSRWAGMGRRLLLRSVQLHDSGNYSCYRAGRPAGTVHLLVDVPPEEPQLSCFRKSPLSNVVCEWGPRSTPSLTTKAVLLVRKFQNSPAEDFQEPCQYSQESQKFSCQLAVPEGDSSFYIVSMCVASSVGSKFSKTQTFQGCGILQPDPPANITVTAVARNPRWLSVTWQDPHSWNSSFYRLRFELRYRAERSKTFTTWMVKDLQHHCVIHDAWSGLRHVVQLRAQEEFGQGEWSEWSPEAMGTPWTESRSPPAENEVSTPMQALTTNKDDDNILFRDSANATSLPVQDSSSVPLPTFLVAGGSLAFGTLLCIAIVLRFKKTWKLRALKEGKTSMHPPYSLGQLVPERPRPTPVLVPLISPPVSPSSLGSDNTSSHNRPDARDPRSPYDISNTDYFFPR

Binder | koff [1] [s⁻¹] | koff [2] [s⁻¹] | also measured
B1 | 0.00045 |  | 
B2 |  |  | binding result [2]: no binding
B3 |  | 0.01 | 
B4 |  | 0.01 | 
B5 |  | 0.01 | 
B6 |  | 0.01 | 
B7 | 0.00074 |  | 
B8 | 0.01 | 0.01 | 
B9 | 0.001 | 0.00058 | 
B10 |  | 0.01 | 
B11 | 0.01 | 0.01 | IC50, IL-6-dependent proliferation of TF-1 cells [3]: 245 nM
B12 | 0.01 | 0.01 | 
B13 | 0.01 | 0.01 | 
B14 |  |  | binding result [2]: no binding
B15 | 0.00045 | 0.00027 | 
B16 | 0.00071 |  | 
B17 | 0.00079 |  | 
B18 | 0.0009 |  | 
B19 | 0.00074 |  | 
B20 | 0.00074 | 0.00023 | 
B21 |  |  | IC50, IL-6-dependent proliferation of TF-1 cells [3]: 10.2 nM
B22 | 0.00074 |  | 
B23 |  | 0.001 | 
B24 |  | 0.001 | 
B25 | 0.00045 | 0.00027 | IC50, IL-6-dependent proliferation of TF-1 cells [3]: 116 nM
B26 | 0.001 |  | 
B27 | 0.00045 |  | 
B28 |  |  | binding result [2]: no binding
B29 |  |  | binding result [2]: no binding
B30 |  | 0.00042 | 
